Like-named read-outs stand apart in the source and are kept apart here.
B1: BKO-4A8: parental anti-CXCR2 antibody, VH SEQ ID NO: 17, VL SEQ ID NO: 18 (antibody, V domains shown)
VH: EVQLLESGGGLVQPGGSLRLSCAASGFTFSSSTMSWVRQAPGKGLEWVSAISGRGRNTYYADSVKGRFTISRDNSRNTLYLQMNSLRAEDTAVYYCAIQMGYWGQGILVTVSS
VL: QSALTQPPSASGSPGQSVTISCIGTSSDVGGYNYVSWYQQHPDKAPKLMIYEVNKRPSGVPDRFSGSKSGNTASLTVSGLQAEDEADYYCSSYAGNNNFGVFGGGTKLTVL
modifications: BKO_4A8_VH; BKO_4A8_VL
B2: 101c: VH SEQ ID NO: 108, VL SEQ ID NO: 110; renamed BKO-4A8-101c (antibody, V domains shown)
VH: EVQLLESGGGLVQPGGSLRLSCAASGFTFSSSTQSWVRQPPGKGLEWVSAISGRGRSTYYADSVKGRFTISRDNSKNTLYLQMNSLRAEDTAVYYCAIQAGYWGQGILVTVSS
VL: QSALTQPPSASGSPGQSVTISCIGTSSDVGGYNYVSWYQQHPGKAPKLMIYEVSKRPSGVPDRFSGSKSGNTASLTVSGLQAEDEADYYCSSYAGSNNFGVFGGGTKLTVL
modifications: 4A8 VH Variant 101 M34Q_A40P_N56S_R75K_M96A; 4A8 VL variant c D41G_N52S_N94S
notes: renamed BKO-4A8-101c

How the values were obtained:
[1] = target: T1, native human CXCR2 expressed by human neutrophils (Homo sapiens, UniProt P25025); experiment: Flow cytometry binding to human blood cells (neutrophils, monocytes, PBMC preparations)
T1 construct: native human CXCR2 expressed by human neutrophils; endogenous in cells; host or cells: human peripheral blood cells (buffy coat, PBMC-enriched fractions, anticoagulated blood): neutrophils, monocytes
T1 sequence (P25025 1-360): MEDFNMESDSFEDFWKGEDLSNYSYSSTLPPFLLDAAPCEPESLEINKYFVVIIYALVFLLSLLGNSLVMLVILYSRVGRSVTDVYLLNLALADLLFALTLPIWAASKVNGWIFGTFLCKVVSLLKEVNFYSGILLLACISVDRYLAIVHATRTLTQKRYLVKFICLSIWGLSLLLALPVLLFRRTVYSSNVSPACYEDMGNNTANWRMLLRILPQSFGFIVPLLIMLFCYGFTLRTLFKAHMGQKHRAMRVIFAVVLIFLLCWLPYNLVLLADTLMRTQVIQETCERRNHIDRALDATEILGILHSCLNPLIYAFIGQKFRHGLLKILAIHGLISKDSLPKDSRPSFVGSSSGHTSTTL
Procedure: Whole human buffy coat, PBMC enriched fractions prepared from human peripheral blood buffy coat or cynomolgus monkey whole blood was used for analysis of antibody binding activity by flow cytometry. Briefly, blood was untreated or diluted 1:1 in sterile filtered room temperature phosphate-buffered saline (PBS). 30 mL samples were layered over 15 mL Lymphoprep™ (Stem Cell Technologies, cat #07851). Peripheral blood mononuclear cells (PBMC) were enriched by room temperature centrifugation at 700 g for 30 minutes with no braking. The PBMC layer was isolated and cells washed in PBS containing 2 mM EDTA with low speed centrifugation at 200 g, to remove platelet contamination. Whole blood or PBMC enriched cell fractions were resuspended in red blood cell lysing solution (BioLegend, 420301). Viable cell counts were determined and cells resuspended at 1×10^7 cells per mL in FACS buffer (1×PBS+0.5% (w/v) BSA+2 mM EDTA pH 7.2).
Flow cytometry binding assays using whole blood or PBMC enriched preparations: Binding assays to detect CXCR2 on blood neutrophil populations using test antibodies were performed essentially as described for assays using transiently transfected Expi293F™ cells. Binding of antibodies to human CXCR2 on the surface of the neutrophils was measured using anti-CXCR2 antibody directly conjugated to the fluorophore allophycocyanin (APC). Matched isotype control antibodies were included for comparison. Cells were incubated with lineage specific antibodies and 2 μg/ml of APC conjugated anti-CXCR2 antibody or isotype control prepared in ice cold 3% BSA/PBS for a minimum of 30 minutes at 4° C. The commercial anti-CXCR2 antibody (clone 48331 (R&D Systems FAB331A)) was used as a positive control. Neutrophil populations were identified by characteristic granularity and size, and positive binding of commercially available antibodies against CD10 (Biolegend, clone H110a, catalogue number 312204). Cells were washed and fixed (BioLegend Fixation buffer, 420801) prior to analysis. The level of fluorescence on the cell surface was measured by flow cytometry. Using this method, test anti-CXCR2 antibodies were detected binding neutrophils from both human and cynomolgus monkey.
To further characterize the anti-CXCR2 antibody BKO-4A8-101c, the ability to bind CXCR2 on neutrophils was tested on anticoagulated human blood. Binding was measured using BKO-4A8-101c directly conjugated to fluorophore APC. Matched isotype control antibodies conjugated to APC were included for comparison. Cells were incubated with lineage-specific antibodies and 2 μg/mL of APC conjugated anti-CXCR2 antibody or isotype control. The level of fluorescence on the cell surface was measured by flow cytometry. […]

Human CXCR2 = target: T2, Human CXCR2 (Homo sapiens, UniProt P25025); experiment: Tango CXCR2-bla U2OS cell-based β-arrestin recruitment assay; parameters: The beta-arrestin/TEV protease fusion and the beta-lactamase reporter are separate parts of the cell line
T2 sequence (P25025 1-360): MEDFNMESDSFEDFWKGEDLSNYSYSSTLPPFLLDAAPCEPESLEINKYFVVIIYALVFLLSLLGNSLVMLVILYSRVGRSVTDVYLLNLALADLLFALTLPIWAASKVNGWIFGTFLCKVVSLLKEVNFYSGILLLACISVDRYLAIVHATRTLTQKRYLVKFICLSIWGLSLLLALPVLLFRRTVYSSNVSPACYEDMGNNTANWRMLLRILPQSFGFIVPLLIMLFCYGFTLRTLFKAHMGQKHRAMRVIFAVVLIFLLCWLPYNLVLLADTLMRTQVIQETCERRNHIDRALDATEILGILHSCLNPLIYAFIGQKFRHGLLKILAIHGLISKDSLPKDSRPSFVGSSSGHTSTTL
From the text: Cells were thawed, propagated, cultured and frozen according to the manufacturer's directions.
Preparation of Tango™ CXCR2-bla U2OS cells for use in cell-based assays: The manufacturer's protocol was altered to make use of 96-well plates instead of 384-well plates. Briefly, dividing cells were harvested one day prior to use. Cells were harvested and resuspended in assay medium (100% FreeStyle™ Expression Medium; Life Technologies; Cat #12338-018) at a viable cell density of 312,500 cells/mL. 128 μL of cell suspension was added per well in 96-well black-walled, clear bottom tissue culture-treated plates. Cells were incubated for 16-20 hrs at 37° C. in an atmosphere of 5% CO2 prior to use in assays.
Tango™ assay procedure: Assays were set up and run as described in the manufacturer's protocol. For antagonist assays, agonists were used at concentrations in the EC50-EC80 range. Assays were read using a FlexStation® 3 (Molecular Devices) fluorescence plate reader configured with the parameters given in Table 4. The blue/green emission ratio for each well was calculated by dividing the blue emission values by the green emission values. All inhibition curves were fitted using a four-parameter dose-response using GraphPad Prism™ (Version 7.01).
The Human CXCR2 Tango™ cell line was used to assess the ability of antibody BKO-4A8-101c to inhibit β-arrestin recruitment to agonist-activated CXCR2. All human ELR+ chemokine CXCR2 ligands were tested in antagonist dose response assays using calculated EC50 values of agonist.
The commercially available reporter cell line Tango™ CXCR2-bla U2OS (ThermoFisher Scientific) was used to assess the ability of the anti-CXCR2 antibodies to inhibit β-arrestin recruitment to agonist-activated CXCR2. Agonists were provided at their assay EC50 concentration for antagonist assays.

Row | Molecule | binding to native human CXCR2 on human PBMCs / neutrophils ([1]; FIG. 2, MFI) | potency of inhibition of CXCL1-mediated activation of CXCR2, ranking (Human CXCR2; agonist CXCL1, BKO-4A8, BKO-8G3_b, BKO-9C3_a compared) | IC50 (Human CXCR2; agonist CXCL1, combinatorial variants, read-out: CXCL1 IC50) | IC50 (Human CXCR2; agonist CXCL1, point variants, read-out: Tango Assay IC50 (nM) CXCL1) | IC50 (Human CXCR2; read-out: CXCL8 IC50, agonist CXCL8, combinatorial variants) | IC50 (Human CXCR2; read-out: Tango Assay IC50 (nM) CXCL8, agonist CXCL8, point variants) | binding to neutrophils and monocytes from human blood ([1]; APC conjugate, 2 μg/mL) | fold more potent than comparator CXCR2 antagonist antibodies or small molecules (Human CXCR2; CXCL1- or CXCL5-mediated β-arrestin activation, based on IC50 values) | CXCL1 Maximal Inhibition % (Human CXCR2; CXCL1 at EC50, comparison with comparators) | potency compared to the parental antibody (Human CXCR2; CXCL1 or CXCL8 as agonist) | CXCL5 Maximal Inhibition % (Human CXCR2; CXCL5 at EC50, comparison with comparators) | partial inhibition of CXCL8-induced β-arrestin recruitment (range) (Human CXCR2; CXCL8) | CXCL8 Maximal Inhibition % (Human CXCR2; CXCL8 at EC50, comparison with comparators) | Maximal Inhibition % Mean (Human CXCR2; Hu CXCL1) | Maximal Inhibition % Mean (Human CXCR2; Hu CXCL2) | Maximal Inhibition % Mean (Human CXCR2; Hu CXCL3) | Maximal Inhibition % Mean (Human CXCR2; Hu CXCL5) | Maximal Inhibition % Mean (Human CXCR2; Hu CXCL6) | Maximal Inhibition % Mean (Human CXCR2; Hu CXCL7) | Maximal Inhibition % Mean (Human CXCR2; Hu CXCL8)
1 | B1 | high binding activity | consistently the most potent | 94 nM | 0.177 nM | 0.66 nM | 0.112 nM |  |  |  |  |  |  |  |  |  |  |  |  |  | 
2 | B2 |  |  |  |  |  |  | bound neutrophils (FIG. 12A) and monocytes (FIG. 12B) | 2- to 39 fold | 97% | improved potency | 98% | 70-80% | 78% | 98% | 100% | 96% | 98% | 98% | 76% | 78%
